Read-outs that look alike come from different tables or passages of the source. Where a SMILES comes first, the peptide text is derived from it. The star is where a group is joined. Biotin = O=C1N[C@H]2[C@H](CS[C@H]2CCCCC(=O)*)N1; Myristoyl = CCCCCCCCCCCCCC(=O)*
How the values were obtained:
SIRT6 [1] = settings: SIRT6 inhibitor, cited from earlier work
Description: Table 2 The inhibitors of SIRT6 were represented with structure, IC50, category, company, indications, and reference. | column: IC50

SIRT6 [2] = biological target: T1, SIRT6 (Homo sapiens, UniProt Q8N6T7); test: Biolayer interferometry, SIRT6; assay type: binding; settings: BLI, PBS-T, cofactor 5 mM
T1 construct: the full‐length human SIRT6 (1‐355aa) with the flag tag at the C‐terminus; His-tag (N); made in house; host or cells: E. coli ArcticExpress (DE3), pET28a
T1 sequence (Q8N6T7 whole entry): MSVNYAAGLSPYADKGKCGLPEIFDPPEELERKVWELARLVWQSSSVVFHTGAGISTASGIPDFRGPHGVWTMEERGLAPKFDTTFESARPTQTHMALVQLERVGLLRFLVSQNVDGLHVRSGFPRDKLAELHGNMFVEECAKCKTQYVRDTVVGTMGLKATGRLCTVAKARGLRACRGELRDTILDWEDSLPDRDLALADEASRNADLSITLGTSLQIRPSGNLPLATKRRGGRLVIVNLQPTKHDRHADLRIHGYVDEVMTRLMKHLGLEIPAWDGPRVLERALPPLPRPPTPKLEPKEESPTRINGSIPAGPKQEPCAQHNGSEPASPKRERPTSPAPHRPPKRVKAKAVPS
Description: (§1) The plasmid pUC57‐SIRT6 contained the full‐length human SIRT6 (1‐355aa) with the flag tag at the C‐terminus. The PCR fragment SIRT6‐Flag from pUC57‐SIRT6 was inserted into pET28a vector to obtain the plasmid pET28a‐SIRT6. Then the pET28a‐SIRT6G60A, pET28a‐SIRT6R65A, pET28a‐SIRT6S56Y, and pET28a‐SIRT6H133Y expression plasmids were obtained through site‐directed mutagenesis by PCR. These SIRT6 expression plasmids were used for SIRT6 expression and purification in E.coli.
(§2) The expression plasmids were transformed in the E.coli Arctic Express (DE3) cells, respectively. The E.coli cells were cultured at 37 °C in 2X YT culture medium. When OD600 reached 0.8, cells were induced by 0.2 mM isopropyl‐1‐thio‐β‐D‐galactopyranoside (IPTG) for 18–20 h at 16 °C. Then, cells were harvested by centrifugation at 6000 rpm for 10min at 4 °C and resuspended in lysis buffer (20 mM Tris‐HCl pH 7.2, 500 mM NaCl, 2% glycerol). Cells were lysed by a high‐pressure homogenizer (Avestin), and centrifuged at 15 000 rpm for room temperature min at 4 °C. […]
(§3) To determinate the affinity of SIRT6 proteins to myristoylated peptides, BLI assays were performed in 96 well plates using an Octet Red96 System. […] Meanwhile, the protein‐peptide affinities were also determined after adding several cofactors (5 mM), such as Mg^2+, Zn^2+, ATP, ADP, AMP, cAMP, NAD^+.

SIRT6 G60A = biological target: T2, SIRT6 G60A (Homo sapiens, UniProt Q8N6T7, G60A); test: Biolayer interferometry, G60A mutant; assay type: binding; settings: BLI, Octet Red96, PBS-T, 120 µM biotin peptide on sensor, analyte G60A 0.18 to 5.5 µM
T2 construct: the full‐length human SIRT6 (1‐355aa) with the flag tag at the C‐terminus; made in house; host or cells: E. coli ArcticExpress (DE3), pET28a
T2 sequence (Q8N6T7 whole entry G60A): as the sequence (Q8N6T7 whole entry) above, with G60A counted along it
Description: as §1, §2, §3

[3] = test system: aortic endothelium (VE-Cadherin junction continuity); test: En face VE-Cadherin staining of descending aortas; assay type: in vivo, mouse
Experimental: Endothelial specific Sirt6 KO (ecSirt6^−/− ) mice (on a C57/Bl6J background) were developed by Cyagen Biosciences lnc. and litter of wild‐type (WT) mice served as control. Genotyping by tail preparation and PCR were performed at 2 weeks of age. All animal procedures were conducted under animal welfare guidelines and were approved by the Animal Ethics Committee of Zhongshan Hospital, Fudan University (EARIA‐389).
The cultivation and collection of mice were described above. Remove the outer membrane and longitudinally cut the thoracic aorta of mice for surface staining. After being fixed in 4% paraformaldehyde for 20 min, 0.5% Triton X‐100 was infiltrated into PBS for 30 min, and 10% normal goat serum was blocked in PBS for 1 h. Then, the corresponding primary antibody was incubated overnight at 4 °C. Then, wash HUVECs or tissues three times with PBS, coupled with the corresponding Alexa Fluor 488‐conjugated goat anti‐rabbit IgG (Thermo, cat#A‐11008) or Alexa Fluor 594 ‐conjugated goat anti‐mouse IgG (Thermo, cat#A‐11 005) (1:500; at room temperature, place in a closed solution for 1 h). Cover the slide with DAPI containing fluorine shielding adhesive medium. Randomly select representative images from each group. Fluorescence signal detection was performed using Leica confocal laser scanning microscope (Leica SP8).

[4] = test system: ATF2 localization and PRKCD/VE‐cadherin axis in HUVECs; test: ALK14 versus myristic acid, ATF2 localization and PRKCD/VE-cadherin axis; assay type: cell-based; settings: each 10 μg/ml, 12 hours
Experimental: Protein samples were separated by SDS/PAGE and transferred to the PVDF membrane. The membrane was blocked with 5% BSA in TBST (25 mM Tris, pH 7.4, 150 mM NaCl, 0.1% Tween‐20), incubated with primary antibodies and secondary antibodies in TBST, and then treated with ECL Plus western blotting detection reagents (Bio‐rad). The chemiluminescence signal was analyzed by ChemiDoc imaging system (Bio‐rad).
HMEC‐1, obtained from Shanghai Zhong Qiao Xin Zhou Biotechnology, was cultured in MCDB131 medium containing 10% foetal bovine serum (FBS) and 1% antibiotics (penicillin and streptomycin) in 5% CO2 incubator at 37 °C. HUVEC, obtained from Shanghai Zhong Qiao Xin Zhou Biotechnology, were cultured in ECM medium containing 5% FBS, 1% antibiotics (penicillin and streptomycin) and 1% endothelial cell growth supplement (ECGS) in 5% CO2 incubator at 37 °C. HEK 293T were obtained from ATCC, and cultured in Dulbecco's modified Eagle's medium (DM EM) containing 10% FBS and 1% antibiotics (penicillin and streptomycin) in 5% CO2 incubator at 37 °C. The SIRT6 KO 293T cells were constructed by Hanbio Biotechnology, the SIRT6 gRNA was 5′‐[…]‐3′. SIRT6 overexpression and knockdown recombinant lentivirus were constructed by Hanbio Biotechnology, the vector pGLV3‐harboring SIRT6 and SIRT6 shRNA (5′‐[…]‐3′) were used for lentivirus packaging. […]

B‐H3K9^Myr‐5R = test: Demyristoylase activity by HPLC; assay type: biochemical; settings: UV 220 nm, 6 µM enzyme, 450 µM peptide, Tris‐HCl pH 8.0, 6 mM MgCl2, 1 mM NAD^+, 30 °C, 4 h
Experimental: (§4) The expression plasmids were transformed in the E.coli Arctic Express (DE3) cells, respectively. The E.coli cells were cultured at 37 °C in 2X YT culture medium. When OD600 reached 0.8, cells were induced by 0.2 mM isopropyl‐1‐thio‐β‐D‐galactopyranoside (IPTG) for 18–20 h at 16 °C. Then, cells were harvested by centrifugation at 6000 rpm for 10min at 4 °C and resuspended in lysis buffer (20 mM Tris‐HCl pH 7.2, 500 mM NaCl, 2% glycerol). Cells were lysed by a high‐pressure homogenizer (Avestin), and centrifuged at 15 000 rpm for […] min at 4 °C. The supernatants were incubated with Ni^+ Sepharose (GE Healthcare) which was pre‐equilibrated in lysis buffer. The resin was washed with 20 column volumes of lysis buffer supplemented with 50 mM imidazole, and then the recombinant proteins were eluted with lysis buffer supplemented with 500 mM imidazole. The eluted fractions were pooled, buffer exchanged (20 mM Tris‐HCl pH 7.2, 250 mM NaCl, 10% glycerol), and concentrated. Finally, the endotoxin was removed by the Pierce High‐Capacity Endotoxin Removal Spin Columns. The purified proteins were stored at −80 °C.
(§5) The peptides B‐H3K9‐5R (biotin‐[…]), B‐H3K9^Ac‐5R (biotin‐KQTARK^Ac[…]), and B‐H3K9^Myr‐5R (biotin‐KQTARK^Myr[…]) were synthesized. Five arginine residues were added to ensure that the peptides were soluble in water. SIRT6 protein SIRT6 and mutants (6 µM) were incubated with the peptides (450 µM) in the reaction system ([…] Tris‐HCl pH 8.0, 6 mM MgCl2, 1 mM NAD^+) at 30 °C. After 4 h, the reactions were terminated by adding 4% TFA at 37 °C for 10 min. After centrifuging at 12 000rpm for 15 min at room temperature, the supernatants were collected and analyzed via HPLC using an Aeris peptide XB‐C18 column (150 × 4.6 mm, 3.6 µm; Phenomenex, USA). The mobile phase consisted of solvent A (0.1% TFA in HPLC‐grade H2O) and solvent B (0.1% TFA in HPLC‐grade acetonitrile). Peptides were eluted in a linear gradient of 0–90% solvent B at 1 ml min^−1 over 19 min. The column temperature was set at 25 °C, and the peptides were monitored with UV light (220 nm).

B‐H3K9^Ac‐5R = test: Deacetylase activity by HPLC; assay type: biochemical; settings: UV 220 nm, 6 µM enzyme, 450 µM peptide, Tris‐HCl pH 8.0, 6 mM MgCl2, 1 mM NAD^+, 30 °C, 4 h
Experimental: as §4, §5

SIRT6 H133Y (dSIRT6) = biological target: T3, SIRT6 H133Y (dSIRT6) (Homo sapiens, UniProt Q8N6T7, H133Y); test: Co-immunoprecipitation enrichment of myristoylated peptide; assay type: binding; settings: Co-IP with negative control peptide, n=3
T3 construct: the full‐length human SIRT6 (1‐355aa) with the flag tag at the C‐terminus; made in house; host or cells: E. coli ArcticExpress (DE3), pET28a
T3 sequence (Q8N6T7 whole entry H133Y): as the sequence (Q8N6T7 whole entry) above, with H133Y counted along it
Experimental: SIRT6/mutants (10 µM) were incubated with B‐H3K9^Myr‐5R or B‐H3K9‐5R (7 µM) in different IP buffers based on buffer (1X PBS, 0.2% tween‐20) at 30 °C for 4h. Then the mixtures were incubated with magnetic flag‐beads at room temperature for 2h. Then, tubes were placed on a magnetic rack for 1 minute, and the supernatants were discarded. The beads were washed three times with an IP buffer and eluted with different elution buffers. The eluants and beads were then analyzed by western blotting with biotin monoclonal antibody or SIRT6 antibody.

Compound | demyristoylase activity (B‐H3K9^Myr‐5R) | deacetylase activity (B‐H3K9^Ac‐5R) | further results
CN1CCN(c2ccc([N+](=O)[O-])c(N)c2)CC1 [5‐(4‐methylpiperazin‐1‐yl)‐2‐nitroaniline] |  |  | IC50 (SIRT6 [1]; ref [65]): 4.93 µM
Nc1ncnc2c1ncn2[C@@H]1O[C@H](COP(=O)(O)OP(=O)(O)O)[C@@H](O)[C@H]1O [ADP] |  |  | effect of cofactor on SIRT6 affinity for B‐H3K9^Myr‐5R (SIRT6 [2]): significantly enhanced SIRT6 affinity
Nc1ncnc2c1ncn2[C@@H]1O[C@H](COP(=O)(O)OP(=O)(O)OP(=O)(O)O)[C@@H](O)[C@H]1O [ATP] |  |  | effect of cofactor on SIRT6 affinity for B‐H3K9^Myr‐5R (SIRT6 [2]): significantly enhanced SIRT6 affinity
CCCCCCCCCCCCCC(=O)NCCCC[C@H](NC(=O)[C@H](CCCNC(=N)N)NC(=O)[C@H](C)NC(=O)[C@@H](NC(=O)[C@H](CCC(N)=O)NC(=O)[C@H](CCCCN)NC(=O)CCCC[C@@H]1SC[C@@H]2NC(=O)N[C@@H]21)[C@@H](C)O)C(=O)N[C@@H](CO)C(=O)N[C@H](C(=O)NCC(=O)NCC(=O)N[C@@H](CCCCN)C(=O)N[C@@H](C)C(=O)N[C@@H](CCCNC(=N)N)C(=O)N[C@@H](CCCNC(=N)N)C(=O)N[C@@H](CCCNC(=N)N)C(=O)N[C@@H](CCCNC(=N)N)C(=O)N[C@@H](CCCNC(=N)N)C(=O)O)[C@@H](C)O [B‐H3K9^Myr‐5R] (Biotin-KQTARK(Myristoyl)STGGKARRRRR-OH) |  |  | Kd (SIRT6 G60A): 1.3 ± 0.11 µM
Cc1nn(C)c(C)c1NS(=O)(=O)c1c(Cl)cc(-c2ccnc(N3CCNCC3)c2)cc1Cl [DDD85646] |  |  | therapeutic efficacy ([3]; 100 mg kg^−1 day^−1, n = 6–8): suboptimal therapeutic efficacy
NC(=O)c1ccc[n+]([C@@H]2O[C@H](COP(=O)([O-])O)[C@@H](O)[C@H]2O)c1 [NMN] |  |  | endothelial damage induced by high‐fat diet in SIRT6‐deficient endothelium ([3]; NMN 100 mg kg^−1 day^−1, n = 6–8): partially rescued endothelial damage
O=C(Nc1ccc(O)c(C(=O)O)c1)c1cccc(NC(=O)c2ccco2)c1 [OSS‐128167] |  |  | IC50 (SIRT6 [1]; ref [68]): 89 µM
CCCCCCCCCCCCCC(=O)O [natural myristic acid, Myristic acid] |  |  | impact on ATF2 localization and PRKCD/VE‐cadherin axis, myristic acid versus ALK14 [4]: equivalent impacts
Diquercetin |  |  | IC50 (SIRT6 [1]; ref [64]): 130 µM
G60A: SIRT6 G60A mutant | strong demyristoylase activity | without detectable deacetylase activity | 
H133Y: SIRT6 H133Y mutant | lacked both enzymatic activities | lacked both enzymatic activities | selectivity of H133Y for myristoylated peptide (SIRT6 H133Y (dSIRT6)): confirmed the selectivity
R65A: SIRT6 R65A mutant | lacked demyristoylase activity | weak deacetylase activity | 
S56Y: SIRT6 S56Y mutant | lacked both enzymatic activities | lacked both enzymatic activities | 
SIRT6 WT: full‐length human SIRT6 (1‐355aa) with the flag tag at the C‐terminus, expressed in E.coli | significant demyristoylase activity | weak deacetylase activity | 
